Assay results as given in patent US20220125947A1 (published 2022).
Positions count from the first letter of the chain named.

B1: VG9B53 (antibody, human IgG1, kappa, V domains shown)
VH: QVQLQESGPGLVKPSETLSLTCTVSGGSISSYYWSWIRQPAGKGLEWIGRIHTIGSINYNPSLKSRVTMSVDTSKNQFSLKLSSVTAADTAVYYCAMEGVGATNYYYGMAVWGRGTMVTVSS
VL: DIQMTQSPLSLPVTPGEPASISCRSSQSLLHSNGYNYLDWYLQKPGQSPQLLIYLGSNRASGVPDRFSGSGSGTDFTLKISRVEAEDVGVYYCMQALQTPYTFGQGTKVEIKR
notes: IgG1, kappa; specificity column: Vd2
B2: VG9B189 (antibody, human IgG1, lambda, V domains shown)
VH: EVQLVQSGGGLVKPGASLKLSCAASGFTFSNHGMSWVRQTSDKRLEWVASITRGGDTTYYPDNVKGRFTISRENAKNTLYLQMSSLKSDDTALYYCTRGPLTVGYAMDYWGQGTTVTVSS
VL: QSVVTQPPSASGSPGQSVTISCTGTSSDVGGYNYVSWYQQHPGKAPKLMIYEVSKRPSGVPDRFSGSKSGNTASLTVSGLQAEDEADYYCNSYAGSNNFEVFGGGTKVTVLG
notes: IgG1, lambda; specificity column: Vd2
B3: VG9B459 (antibody, human IgG1, lambda)
heavy: not shown
light: QPVLTQPASVSGSPGQSITISCTGTSSDVGGYNYVSWYQQHPGKAPKLMIYEVSNRPSGVSNRFSGSKSGNTASLTISGLQAEDEADYYCSSYTSTSVVFGGGTKLTVLGQPKAAPSVTLFPPSSEELQANKATLVCLISDFYPGAVTVAWKADSSPVKAGVETTTPSKQSNNKYAASSYLSLTPEQWKSHRSYSCQVTHEGSTVEKTVAPTECS
notes: IgG1, lambda
B4: VG9B464 (antibody, human IgG1, lambda)
heavy: not shown
light: B3 light with P2S, V3A
notes: IgG1, lambda
B5: VG9B438 (antibody, human IgG1, lambda)
heavy: not shown
light: B3 light with Q1S, P2Y, V3E
notes: IgG1, lambda
B6: VG9B436 (antibody, human IgG1, lambda)
heavy: not shown
light: B3 light with P2S
notes: IgG1, lambda
B7: VG9B442 (antibody, human IgG1, lambda)
heavy: not shown
light: B3 light with P2S, V3A, L106V
notes: IgG1, lambda
B8: VG9B443 (antibody, human IgG1, lambda)
heavy: not shown
light: B3 light with P2S, V3A
notes: IgG1, lambda
B9: VG9B457 (antibody, human IgG1, lambda)
heavy: not shown
light: B3 light with P2A
notes: IgG1, lambda
B10: VG9B460 (antibody, human IgG1, lambda)
heavy: not shown
light: B3 light with P2L
notes: IgG1, lambda
B11: VG9B434 (antibody, human IgG1, lambda)
heavy: not shown
light: B3 light with P2S
notes: IgG1, lambda
B12: VG9B437 (antibody, human IgG1, lambda)
heavy: not shown
light: B3 light with P2S, V3A
notes: IgG1, lambda
B13: VG9B453 (antibody, human IgG1, lambda)
heavy: not shown
light: B3 light with P2S, V3A, L106V
notes: IgG1, lambda
B14: VG9B466 (antibody, human IgG1, lambda)
heavy: not shown
light: B3 light with Q1S, P2Y, V3E
notes: IgG1, lambda
B15: VG9B455 (antibody, human IgG1, lambda)
heavy: not shown
light: B3 light with Q1S, P2Y, V3E
notes: IgG1, lambda
B16: VG9B450 (antibody, human IgG1, lambda)
heavy: not shown
light: B3 light with P2S
notes: IgG1, lambda
B17: VG9B157 (antibody, human IgG1, lambda, V domains shown)
VH: B2 VH with V5L, Q6E
VL: SSELTQDPAVSVALGQTVRITCQGDSLRSYYATWYQQKPGQAPILVIYGENNRPSGIPDRFSGSRSGNTASLTITGAQAEDEADYYCNSRDTGDHHLVFGGGTKLTVLG
notes: IgG1, lambda

Molecular target: T1, γδ T cell receptor on human γδ T cells (human)
T1 construct: whole, on cells; Target is the γδ TCR on a mixed population of human γδ T cells; also called AG000003021 (γδ T cells)
Test: flow cytometry DRC binding 37 C, human γδ T cells
Description: (§1) Binding of antibodies to human γδ T cells or SKW cell lines expressing Vγ9/Vδ2, Vγ9/Vδ2 or Vγ5/Vδ2 was carried out by flow cytometry. Briefly, the cells were centrifuged at 300×g for 5 minutes and the pellet was resuspended in 34 ml fresh media (in RPMI+10% FBS). 50 μL of the cells were then plated (44K cells/well) into assay plates. Samples were incubated for one hour at 37° C. in tissue culture (TC) incubator followed by wash steps by adding 100 μl FACS staining buffer. Secondary detention antibodies (A647 conjugated anti-human IgG Fc specific antibody (2 μg/mL) along with AF488 anti mouse CD3, clone OKT3 at 1 ug/mL) were added at 50 μL/well to appropriate wells according to the plate map. After incubating for 60 minutes at 37° C. in the TC incubator, cells were again washed as described above. This is followed by resuspension in 20 μL/well running buffer containing 1:1000 dilution of Sytox blue dead cell stain and the plates were run on iQue Screener.
(§2) Gating and data analysis: Human anti-human Vγ9 antibody (VG9B2 mAb at 10 nM) was used to mark the gating of positive population. All cells were first gated for singlets on SCS-A vs. SCS-H dot plot, live/dead followed by CD3 positive population, and this subset of CD3 positive population was gated for Vγ9 positive binding using positive control mAb. Cells were also assessed for cell binding of control mAbs by RL1 (A647) Geomeans from the live cell population. Advanced metrics were used and normalization metrics were chosen to calculate fold over background wells containing secondary antibody alone (designated as ‘background’ within ForeCyt settings).

Row | Binder | Max. Activity
1 | B1 | 536 fold over background
2 | B2 | 739 fold over background

Molecular target: T2, γδ T cell receptor on human γδ T cells (human)
T2 construct: also called AG000003021 (γδ T cells)
Test: flow cytometry, DRC binding 37 C, human γδ T cells
Description: as §1, §2

Row | Binder | Max. Activity
3 | B3 | 1090 fold over background
4 | B4 | 886 fold over background
5 | B5 | 895 fold over background
6 | B6 | 812 fold over background
7 | B7 | 856 fold over background
8 | B8 | 1010 fold over background
9 | B9 | 865 fold over background
10 | B10 | 767 fold over background
11 | B11 | 804 fold over background
12 | B12 | 885 fold over background
13 | B13 | 1040 fold over background
14 | B14 | 946 fold over background
15 | B15 | 1000 fold over background
16 | B16 | 928 fold over background
17 | B17 | 1070 fold over background
